Results on five sequences are retold here after patent US20230054274A1, “PEPTIDE-MHC COMPLEXES” (priority 2019, published 2023).

The test has as its target HLA-E*01:03 (Homo sapiens, UniProt P13747). The test can be described thus: Stability of native peptide-HLA-E complexes by loss of ILT2 binding over time (SPR).

Sequence of HLA-E*01:03 (P13747 with tags, fused parts or gaps): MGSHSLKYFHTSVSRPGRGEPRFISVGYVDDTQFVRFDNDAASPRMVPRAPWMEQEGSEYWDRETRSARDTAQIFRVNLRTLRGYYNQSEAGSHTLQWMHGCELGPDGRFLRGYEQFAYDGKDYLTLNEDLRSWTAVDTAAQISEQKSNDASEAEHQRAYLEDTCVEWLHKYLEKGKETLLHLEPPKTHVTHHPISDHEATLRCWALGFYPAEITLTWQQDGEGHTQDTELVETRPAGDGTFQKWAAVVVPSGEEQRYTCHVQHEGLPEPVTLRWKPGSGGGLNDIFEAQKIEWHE
Sequence of HLA-E*01:03 (P61769 with tags, fused parts or gaps partner): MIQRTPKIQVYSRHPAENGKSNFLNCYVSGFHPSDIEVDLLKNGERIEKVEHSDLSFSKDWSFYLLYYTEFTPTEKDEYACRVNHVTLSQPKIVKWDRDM

In the case of “ILPSDAPVL [MTB peptide known to be presented by HLA-E]”, under “[…], half-life by ILT2 binding”, the “T 1/2 (h) (HLA-E*01:03)” value is 0.70 h.
Turning to VMAPRTLIL, the “T 1/2 (h) (HLA-E*01:03)” value ([…], half-life by ILT2 binding) is given as 3.20 h.
With “RMYSPVSIL [HIV (Gag 275) peptide known to be presented by HLA-E]”, under “[…], half-life by ILT2 binding”, the “T 1/2 (h) (HLA-E*01:03)” value is on record as 0.27 h.
“VMATRRNVL [MTB peptide known to be presented by HLA-E]”: the “T 1/2 (h) (HLA-E*01:03)” value ([…], half-life by ILT2 binding) is 0.57 h.
For the sequence VMAPRTLVL, the “T 1/2 (h) (HLA-E*01:03)” value (native unmodified peptide in complex with HLA-E*01:03, half-life by ILT2 binding) amounted to 3.00 h.
